Format in all cases: biochemical
Assay [1] is described as follows: PPi release assay, adenylation activity with D-hydroxyphenylglycine. To be noted: substrate D-hydroxyphenylglycine. The source says:
(§1) These assays use inorganic pyrophosphatases to convert PPi produced during aminoacyl-AMP formation to orthophosphate (Pi). To measure Pi concentrations some of these assays use molybdate/malachite green reagent for colorimetric detection (McQuade et al. 2008) or, as used in the context of the present invention, a shift in absorbance maximum by conversion of 7-methyl-6-thioguanosine (MESG) by purine nucleoside phosphorylase (Ehmann D. E. et al. (Proc. Natl. Acad. Sci. (2000) 97, 2509-2514) or Daniel & Aldrich (Anal. Biochem. (2010) 404, 56-63)).
(§2) To determine the adenylation activity of the adenylation domains, the Enzchek® pyrophosphate assay kit (Life Technologies) was used as described by Ehmann D. E. et al. (Proc Nat Acad Science (2000) 97, 2509-2514) with small modifications. The reactions were performed 96 wells UV/Vis transparent plates (BD Falcon). The reaction mixture comprises 50 mM HEPES pH 8.0, 10 mM MgCl2, 5 mM ATP, 75 mM DTT, 0.03 U Inorganic Pyrophosphatase (IP), 1 U Purine Nucleoside Phosphorylase (PNP) and 0.2 mM MESG in a volume of 70 μl. Next 20 μl (around 0.5-2 μM final concentration) of purified A(T) domain, with or without co-purification of the MbtH like helper protein was added and the reaction was pre-incubated for 15 minutes at RT to reduce contaminating Pi. Following the pre-incubation, 10 μl of a 10 mM or 1 mM solution of the appropriate amino acid depending on the performed specificity determination was added to initiate the adenylation reaction and the absorbance at 360 nm was measured using a TECAN I Control spectrophotometer. Absorbance measurements were made every 5 to 10 min over a period of up to 240 min. A reaction with addition of 10 μl MilliQ water instead was used to determine and subtract the background absorbance. As substrates the following amino acids were used: D- or L-phenylalanine, D- or L-hydroxyphenylglycine, D- or L-phenylglycine, L-tryptophan, L-valine, L-cysteine, and L-leucine.

A short description of assay [2]: PPi release assay, adenylation activity with L-phenylalanine. As to conditions: substrate L-phenylalanine.
Text: as §1, §2

Assay [3] can be described thus: PPi release assay, adenylation activity with D-phenylalanine. As to conditions: substrate D-phenylalanine.
Text: as §1, §2

Assay [4] in a line: PPi release assay, adenylation activity with L-hydroxyphenylglycine. To be noted: substrate L-hydroxyphenylglycine.
Text: as §1, §2

A short description of assay [5]: PPi release assay, adenylation activity with L-leucine. To be noted: substrate L-leucine; protein alone; data not shown.
Text: as §1
(§3) To determine the adenylation activity of the adenylation domains, the Enzchek® pyrophosphate assay kit (Life Technologies) was used as described by Ehmann D. E. et al. (Proc Nat Acad Science (2000) 97, 2509-2514) with small modifications. The reactions were performed 96 wells UV/Vis transparent plates (BD Falcon). […] Following the pre-incubation, 10 μl of a 10 mM or 1 mM solution of the appropriate amino acid depending on the performed specificity determination was added to initiate the adenylation reaction and the absorbance at 360 nm was measured using a TECAN I Control spectrophotometer. Absorbance measurements were made every 5 to 10 min over a period of up to 240 min. A reaction with addition of 10 μl MilliQ water instead was used to determine and subtract the background absorbance. […]

Assay [6] can be described thus: PPi release assay, adenylation activity with L-valine. As to conditions: substrate L-valine; protein alone; data not shown.
Text: as §1, §3

A short description of assay [7]: PPi release assay, adenylation activity with L-cysteine. As to conditions: substrate L-cysteine; protein alone; data not shown.
Text: as §1, §3

Assay [8] is described as follows: PPi release assay, adenylation activity with L-tryptophan. As to conditions: substrate L-tryptophan; protein alone; data not shown.
Text: as §1, §3

[9] abbreviates: co-purified with MbtH-like protein Tcp13.
The mark [10] stands for this setting: protein alone, without MbtH-like protein.

B1: CepB_M2_A: purified adenylation domain of CepB (PCZA363.4) module M2 (SEQ ID NO: 4); Amycolatopsis orientalis (protein, listed as Amycolatopsis orientalis)
chain: LPVGRLGVTSEPARASVVERWNSTGEAANRTSVLELFRQQADASPDAVAVMDAARTLSYADLDRESDRLAGYLAAMGVRRGDRVGVVMERGTDLFVALLAVWKAGAAQVPVNVDYPAERIERMLADAGASVAVCLEATRKAVPDGVEPVVMDVPAIDGVRHEAPQVTVGAHDLAYVMYTSGSTGVPKGVAVPHGSVAALASDPGWSQGPDDCVLLHASHAFDASLVEIWVPLVNGSRVMVAEPGAVDAERLREAISRGVTTVHLTAGAFRAVAEESPDSFTGLREILTGGDAVPLASVVRMRRACPDVRVRQLYGPTEITLCATWHVIEPGAETGDTLPIGRPLAGRQAYVLDAFLQPVAPNVTGELYIAGAGLAHGYLGNNGSTSERFIANPFASGERMYRTGDLARWTDQGELLFAGRADSQVKIRGYRVEPGEIEVALTEVPHVAQAVVVAREDHPGDKRLIAYVTAEEGPALAADAVREHLAARMPEFMVPAVVLVLDSFPLTLNGKIDRAALPAPEFTGKAAGREPRTETERVLC
With B1, the “adenylation activity (absorption 360 nm, PPi release assay)” value in assay [1] (setting [9]) was “clear adenylation activity”; in assay [1] (setting [10]) it was “No adenylation activity”; in assay [2] (setting [9]), “no activity”; in assay [2] (setting [10]), “No adenylation activity”; in assay [3] (setting [9]) it was “no activity”; in assay [3] (setting [10]) it was “No adenylation activity”. Further, the “adenylation activity (absorption 360 nm, PPi release assay)” value in assay [4] (setting [9]) was “clear adenylation activity”; in assay [4] (setting [10]), “No adenylation activity”.

B2: TycA: control protein; first one-module-bearing peptide synthetase for synthesis of tyrocidine by Bacillus brevis, phenylalanine-specific adenylation domain (protein, UniProt P09095 1-1088, looked up)
Tyrocidine synthase 1: MLANQANLIDNKRELEQHALVPYAQGKSIHQLFEEQAEAFPDRVAIVFENRRLSYQELNRKANQLARALLEKGVQTDSIVGVMMEKSIENVIAILAVLKAGGAYVPIDIEYPRDRIQYILQDSQTKIVLTQKSVSQLVHDVGYSGEVVVLDEEQLDARETANLHQPSKPTDLAYVIYTSGTTGKPKGTMLEHKGIANLQSFFQNSFGVTEQDRIGLFASMSFDASVWEMFMALLSGASLYILSKQTIHDFAAFEHYLSENELTIITLPPTYLTHLTPERITSLRIMITAGSASSAPLVNKWKDKLRYINAYGPTETSICATIWEAPSNQLSVQSVPIGKPIQNTHIYIVNEDLQLLPTGSEGELCIGGVGLARGYWNRPDLTAEKFVDNPFVPGEKMYRTGDLAKWLTDGTIEFLGRIDHQVKIRGHRIELGEIESVLLAHEHITEAVVIAREDQHAGQYLCAYYISQQEATPAQLRDYAAQKLPAYMLPSYFVKLDKMPLTPNDKIDRKALPEPDLTANQSQAAYHPPRTETESILVSIWQNVLGIEKIGIRDNFYSLGGDSIQAIQVVARLHSYQLKLETKDLLNYPTIEQVALFVKSTTRKSDQGIIAGNVPLTPIQKWFFGKNFTNTGHWNQSSVLYRPEGFDPKVIQSVMDKIIEHHDALRMVYQHENGNVVQHNRGLGGQLYDFFSYNLTAQPDVQQAIEAETQRLHSSMNLQEGPLVKVALFQTLHGDHLFLAIHHLVVDGISWRILFEDLATGYAQALAGQAISLPEKTDSFQSWSQWLQEYANEADLLSEIPYWESLESQAKNVSLPKDYEVTDCKQKSVRNMRIRLHPEETEQLLKHANQAYQTEINDLLLAALGLAFAEWSKLAQIVIHLEGHGREDIIEQANVARTVGWFTSQYPVLLDLKQTAPLSDYIKLTKENMRKIPRKGIGYDILKHVTLPENRGSLSFRVQPEVTFNYLGQFDADMRTELFTRSPYSGGNTLGADGKNNLSPESEVYTALNITGLIEGGELVLTFSYSSEQYREESIQQLSQSYQKHLLAIIAHCTEKKEVERTPSDFSVKGLQMEEMDDIFELLANTLR
Turning to B2, the “adenylation activity (PPi release assay)” value in assay [5] is “similarly recognized and adenylated”; in assay [6] it was “similarly recognized and adenylated”; in assay [7], “no adenylation activity”; in assay [8], “similarly recognized and adenylated”. Besides, the “adenylation activity (absorption 360 nm, PPi release assay)” value is “no adenylation activity” in assay [1] (setting [10]), “accepted as substrate” in assay [2] (setting [10]), “accepted as substrate” in assay [3] (setting [10]) and “no adenylation activity” in assay [4] (setting [10]).

B3: StaC_M2_A: purified adenylation domain of StaC module M2 (SEQ ID NO: 8); Streptomyces toyocaensis (protein, listed as Streptomyces toyocaensis)
chain: LPVGRLGVTSDATRTSEVERWNATGEAAGGASVVELFRRRSAGTPDAVAVVDGDRTLSYGDLDRESDRLAGRLAETGVRRGDHVGVVLERGADLFVAFLAVWKAGAAYVPVHVDYPPVRIERMLADAGVTVAVCAEGTRNAVPDGLEPVPVDAPWAGETRHETPTVTARDAAYVMYTSGSTGEPKGIVVPHGSVAALAGDPGWALDADDCVLMHASHAFDASLFEIWAPLVRGARVMVAEPGAVDTQRLREAVARGVTTVHLTAGSFRVLAEESPGSFDGLREILTGGDVVPLASVAQLRRACPDVRVRHLYGPTETTLCGTWHLLEPGDEPGDVLPIGRPLAGRRAYVLDAFLQPVAPNVTGELYLAGVGLALGYLGARGATSERFVADPFVPGERMYRTGDLARRNDRGELLFAGRADAQVKIRGYRVEPTEIETVLAEAPQVAQTVVVAREDGPGEKRLIAYAIAEPDQVLDPEALREHLAARLPEFMVPAAVVVLDDFPLTINGKIDREALPAPEFSAKPAGREPRTEAERVLC
B3: the “adenylation activity (absorption 360 nm, PPi release assay)” value is reported as “clear adenylation activity” in assay [1] (setting [9]); “No adenylation activity” in assay [1] (setting [10]); “no activity” in assay [2] (setting [9]); “No adenylation activity” in assay [2] (setting [10]); “no activity” in assay [3] (setting [9]); “No adenylation activity” in assay [3] (setting [10]). Moreover, the figures for the “adenylation activity (absorption 360 nm, PPi release assay)” value in assay [4] (setting [9]) and in assay [4] (setting [10]) were “clear adenylation activity” and “No adenylation activity”, respectively.

B4: BpsB_M2_A: purified adenylation domain of BpsB module M2 (SEQ ID NO: 5); Amycolatopsis balhimycina (protein, listed as Amycolatopsis balhimycina)
chain: VGRLGVTSEPTRAAVVERWNSTGEAAAETSVLELFRRQAGASPDAVAVVAGERTLSYADLDRESDRLAGHLAGIGVGRGDRVGVVMTRGADLFVALLGVWKAGAAQVPVNVDYPAERIERMLADVGASVAVCVEATRKAVPDGVEPVVVDLPVIGGVRPEAPPVTVGAHDVAYVMYTSGSTGVPKAVAVPHGSVAALASDPGWSQGPGDCVLLHASHAFDASLVEIWVPLVSGARVLVAEPGTVDAERLREAVSRGVTTVHLTAGAFRAVAEESPDSFIGLREILTGGDAVPLASVVRMRQACPDVRVRQLYGPTEITLCATWLVLEPGAATGDVLPIGRPLAGRQAYVLDAFLQPVAPNVTGELYLAGAGLAHGYLGNTAATSERFVANPFSGGGRMYRTGDLARWTDQGELVFAGRADSQVKIRGYRVEPGEVEVALTEVPHVAQAVVVAREGQPGEKRLIAYVTAEAGSALESAAVRAHLATRLPEFMVPSVVVVLESFPLTLNGKIDRAALPAPEFAGKAAGREPRTEAERVLCG
As to B4, the “adenylation activity (absorption 360 nm, PPi release assay)” value is “clear adenylation activity” in assay [1] (setting [9]); “No adenylation activity” in assay [1] (setting [10]); “no activity” in assay [2] (setting [9]); “No adenylation activity” in assay [2] (setting [10]); “no activity” in assay [3] (setting [9]); “No adenylation activity” in assay [3] (setting [10]). Further, the “adenylation activity (absorption 360 nm, PPi release assay)” value in assay [4] (setting [9]) was “clear adenylation activity”; in assay [4] (setting [10]), “No adenylation activity”.

Source of the values: patent US20140349340A1, “MBTH-LIKE PROTEINS IN THE PRODUCTION OF SEMI SYNTHETIC ANTIBIOTICS” (DSM SINOCHEM PHARMACEUTICALS NETHERLANDS B.V., priority 2012, published 2014).
